Data set [1] in a line: Pharmacokinetic profile of TTP-4000 after IV injection. Conditions: single IV bolus 5 mg/kg; plasma; after saturation of ligands; FIG. 11. The data set is classed as in vivo, monkeys. The method, then: Following collection, the tubes were placed on wet ice (maximum 30 minutes) until centrifugation under refrigeration (at 2 to 8° C.) at 1500×g for 15 minutes. Each harvested plasma sample was then stored frozen (−70° C.±10° C.) until assayed for RAGE polypeptide using an ELISA at various time-points following the injection, as described in Example 6.
Initially, 50 uL of the RAGE specific monoclonal antibody 1HB1011 at a concentration of 10 ug/mL in 1×PBS pH 7.3 is coated on plates via overnight incubation. When ready for use, plates are washed three times with 300 uL of 1× Imidazole-Tween wash buffer and blocked with 1% BSA. […] The samples are allowed to incubate at room temperature for one hour. After incubation, the plates are plates are washed three times. A Goat Anti-human IgG1 1 (Sigma A33 12) AP conjugate in 1×PBS with 1% BSA is added and allowed to incubate at room temperature for 1 hour. The plates are washed three times. Color was elucidated with paranitrophenylphosphate.

Data set [2] has as its system RAGE (S100b-stimulated THP-1 cells). The experiment in a line: S100b/RAGE-induced production of TNF-α in THP-1 cells. Format: cell-based. As to conditions: 10 μg protein, FIG. 10. The method, then:
THP-1 myeloid cells may be cultured in RPMI-1640 media supplemented with 10% FBS and induced to secrete TNF-α via stimulation of RAGE with S100b. When such stimulation occurs in the presence of a RAGE fusion protein, induction of TNF-α, by S100b binding to RAGE may be inhibited.
Previous work has shown that the myeloid THP-1 cells may secrete TNF-α in response to RAGE ligands. In this assay, THP-1 cells were cultured in RPMI-1640 media supplemented with 10% FBS using a protocol provided by ATCC. […] The amount of TNF-α secreted by the THP-1 cells was measured 24 hours after the addition of the proteins to the cell culture using a commercially available ELISA kit for TNF-α (R&D Systems, Minneapolis, Minn.).

The test system of another data set is Zucker diabetic rats. Nature of the data set: Diabetic rat model of restenosis (balloon injury of left common carotid artery). Format: in vivo. As to the method:
In these experiments, balloon injury of left common carotid artery was performed in Zucker diabetic and nondiabetic rats using standard procedure. […] A maintenance dose was delivered every other day until day 7 after injury (i.e., at day 1, 3, 5 and 7 after injury). The maintenance dose was high=1 mg/animal for one group, or low=0.3 mg/animal for the second group. To measure vascular smooth muscle cell (VSMC) proliferation, animals were sacrificed at 4 days and 21 days after injury.
For the measurement of cell proliferation, 4 day animals received intraperitoneal injection of bromodeoxyuridine (BrDdU) 50 mg/kg at 18, 12, and 2 hours before euthanasia. After sacrifice, the entire left and right carotid arteries were harvested. Specimens were stored in Histochoice for at least 24 hours before embedding. Assessment of VSMC proliferation was performed using mouse anti-BrdU monoclonal antibody. A fluorescence labeled goat anti-mouse secondary antibody was applied. The number of BrdU-positive nuclei per section were counted by two observers blinded to the treatment regimens.
The remaining rats were sacrificed at 21 days for morphometric analysis. Morphometric analyses were performed by an observer blinded to the study groups, using computerized digital microscopic planimetry software Image-Pro Plus on serial sections, ([…]) carotid arteries stained by Van Gieson staining. All data were expressed as mean±SD. Statistical analysis was performed with use of SPSS software. Continuous variables were compared using unpaired t tests. A values of P≦0.05 was considered to be statistically significant.

In another data set the test system is amyloid-beta (A-beta). Nature of the data set: Competition of a RAGE ligand with immobilized amyloid-beta for binding to the fusion protein. Conditions: TTP-4000 initial solution diluted 1:10 or 1:30; RAGE ligand 10 μM FAC. As to the method: The fusion protein of the present invention may also be used to identify compounds having the ability to bind to RAGE.
Known RAGE ligands were coated onto the surface of Maxisorb plates at a concentration of 5 micrograms per well. Plates were incubated at 4° C. overnight. Following ligand incubation, plates were aspirated and a blocking buffer of 1% BSA in 50 mM imidizole buffer (pH 7.2) was added to the plates for 1 hour at room temperature. The plates were then aspirated and/or washed with wash buffer (20 mM Imidizole, 150 mM NaCl, 0.05% Tween-20, 5 mM CaCl2 and 5 mM MgCl2, pH 7.2). […] The fusion protein was added at increasing dilutions of the initial sample. The RAGE fusion protein was allowed to incubate with the immobilized ligand at 37° C. for one hour after which the plate was washed and assayed for binding of the fusion protein. Binding was detected by the addition of an immunodetection complex containing a monoclonal mouse anti-human IgG1 diluted 1:11,000 to a final assay concentration (FAC) of 21 ng/100 μL, a biotinylated goat anti-mouse IgG diluted 1:500, to a FAC of […], and an avidin-linked alkaline phosphatase. The complex was incubated with the immobilized fusion protein for one hour at room temperature after which the plate was washed and the alkaline phosphatase substrate para-nitrophenylphosphate (PNPP) was added. […]

Setting [3] is: High dose 1.0 mg/animal qod × 4, loading dose 3 mg/animal, IP, 21 days, mean±SD.
[4] abbreviates: Low dose 0.3 mg/animal qod × 4, loading dose 3 mg/animal, IP, 21 days, mean±SD.

B1: TTP-4000: four domain RAGE fusion protein (SEQ ID NO: 32): human RAGE amino acids 1-251 linked to CH2 and CH3 domains of human IgG (protein)
chain: MAAGTAVGAWALVLSLWGAVVGAQNITARIGEPLVLKCKGAPKKPPQRLEWKLNTGRTEAWKVLSPQGGGPWDSVARVLPNGSLFLPAVGIQDEGIFRCQAMNRNGKETKSNYRVRVYQIPGKPEIVDSASELTAGVPNKVGTCVSEGSYPAGTLSWHLDGKPLVPNEKGVSVKEQTRRHPETGLFTLQSELMVTPARGGDPRPTFSCSFSPGLPRHRALRTAPIQPRVWEPVPLEEVQLVVEPEGGAVAPPSVFLFPPKPKDTLMISRTPEVTCVVVDVSHEDPEVKFNWYVDGVEVHNAKTKPREEQYNSTYRVVSVLTVLHQDWLNGKEYKCKVSNKALPAPIEKTISKAKGQPREPQVYTLPPSRDELTKNQVSLTCLVKGFYPSDIAVEWESNGQPENNYKTTPPVLDSDGSFFLYSKLTVDKSRWQQGNVFSCSVMHEALHNHYTQKSLSLSPGK
Consider B1, for which the terminal half-life result in data set [1] is recorded as “greater than 300 hours”. Moreover, in data set [2] (S100b 0.1 mg/ml FAC, 24 hours), the “reduction of S100b induction of TNF-α” value was around 70%. For the same molecule, the “effect on S100b induction of TNF-α (in words)” value in data set [2] (S100b 0.1 mg/ml) is listed as “at least as effective in blocking S100b induction of TNF-α as is sRAGE”. In the data set with Zucker diabetic rats (4 days after injury, dose-responsive, FIG. 13B), the “vascular smooth muscle cell proliferation (BrdU proliferating cells, in words)” value is “significantly reduced”. In the data set on Zucker diabetic rats (setting [3]), this molecule registered a Luminal area of 0.16 ± 0.02 mm^2 and a Medial area of 0.11 ± 0.01 mm^2. Besides, in the data set on Zucker diabetic rats (setting [4]), the I/M ratio is given as 1.61 ± 0.26, the Luminal area was found to be 0.18 ± 0.04 mm^2 and the Medial area stood at 0.11 ± 0.02 mm^2. The “intima/media ratio (in words)” value in the data set with Zucker diabetic rats (dose-responsive, FIG. 13A) is reported as “significantly reduced”. Moreover, in the data set on amyloid-beta (A-beta), the “inhibition of binding of TTP-4000 to immobilized amyloid-beta by the RAGE ligand” value is on record as “completely inhibited”.

Source of the values: patent publication US7981423B2, “Rage fusion proteins” (Transtech Pharma, Inc., priority 2004, dated 2011).
